Data reported in PMC2593702, “Purification, crystallization and X-ray structures of the two manganese superoxide dismutases from Caenorhabditis elegans” (Acta Crystallographica Section F, 2008).

B1: Caenorhabditis elegans manganese superoxide dismutase MnSOD-2 (enzyme)
chain: MKHSLPDLPYDYADLEPVISHEIMQLHHQKHHATYVNNLNQIEEKLHEAVSKGNVKEAIALQPALKFNGGGHINHSIFWTNLAKDGGEPSAELLTAIKSDFGSLDNLQKQLSASTVAVQGSGWGWLGYCPKGKILKVATCANQDPLEATTGLVPLFGIDVWEHAYYLQYKNVRPDYVNAIWKIANWKNVSERFAKAQQ
notes: N-terminal methionine of the expression construct, retained in the purified protein by mass spectrometry; Superoxide dismutase [Mn]; Expressed without a histidine tag; Cloning is as in Hunter et al., 1997
B2: Caenorhabditis elegans manganese superoxide dismutase MnSOD-3 (enzyme)
chain: MKHTLPDLPFDYADLEPVISHEIMQLHHQKHHATYVNNLNQIEEKLHEAVSKGNLKEAIALQPALKFNGGGHINHSIFWTNLAKDGGEPSKELMDTIKRDFGSLDNLQKRLSDITIAVQGSGWGWLGYCKKDKILKIATCANQDPLEGMVPLFGIDVWEHAYYLQYKNVRPDYVHAIWKIANWKNISERFANARQ
notes: as for B1

Molecular target: the molecule itself
Experiment: SEC; gel-filtration chromatography of the pure proteins; Sephacryl S-200, 10 mM Tris-HCl pH 8.0, 0.15 M NaCl, 0.8 ml/min; results not shown

Row | Protein | stoichiometry N
1 | B1 | 4
2 | B2 | 4
